Measurements reported in publication doi:10.1101/2021.01.21.427566, “Gradual opening of Smc arms in prokaryotic condensin” (bioRxiv, 2021).

Biological target: the molecule itself
Assay: EPR-DEER; MTSL-labelled single-cysteine Smc, 5 µM, mixed with ScpA and ScpB (similar trends without ScpAB); apo, or with 1 mM ATP and 10 µM dsDNA40; 50 mM Tris-HCl pH 7.5, 50 mM NaCl, 2 mM MgCl2, 40 % ethylene glycol-d6, 90 % deuterium oxide; shock-frozen, DEER traces at 50 K, Q band; spin-spin distances between the two Smc of a dimer

B1: Smc^3S(D193C) (natural protein, B. subtilis, UniProt P51834 1-1186, looked up)
chain: MFLKRLDVIGFKSFAERISVDFVKGVTAVVGPNGSGKSNITDAIRWVLGEQSARSLRGGKMEDIIFAGSDSRKRLNLAEVTLTLDNDDHFLPIDFHEVSVTRRVYRSGESEFLINNQPSRLKDIIDLFMDSGLGKEAFSIISQGKVEEILSSKAEDRRSIFEEAAGVLKYKTRKKKAENKLFETQDNLNRVECILHELEGQVEPLKIQASIAKDYLEKKKELEHVEIALTAYDIEELHGKWSTLKEKVQMAKEEELAESSAISAKEAKIEDTRDKIQALDESVDELQQVLLVTSEELEKLEGRKEVLKERKKNAVQNQEQLEEAIVQFQQKETVLKEELSKQEAVFETLQAEVKQLRAQVKEKQQALSLHNENVEEKIEQLKSDYFELLNSQASIRNELQLLDDQMSQSAVTLQRLADNNEKHLQERHDISARKAASETEFARIEQEIHSQVGAYRDMQTKYEQKKRQYEKNESALYQAYQYVQQARSKKDMLETMQGDFSGFYQGVKEVLKAKERLGGIRGAVLELISTEQKYETAIEIALGASAQHVVTDDEQSARKAIQYLKQNSFGRATFLPLSVIRDRQLQSRDAETAARHSSFLGVASELVTFDPAYRSVIQNLLGTVLITEDLKGANELAKLLGHRYRIVTLEGDVVNPGGSMTGGAVKKKNNSLLGRSRELEDVTKRLAEMEEKTALLEQEVKTLKHSIQDMEKKLADLRETGEGLRLKQQDVKGQLYELQVAEKNINTHLELYDQEKSALSESDEERKVRKRKLEEELSAVSEKMKQLEEDIDRLTKQKQTQSSTKESLSNELTELKIAAAKKEQASKGEEDNLARLKKELTETELALKEAKEDLSFLTSEMSSSTSGEEKLEEAAKHKLNDKTKTIELIALRRDQRIKLQHGLDTYERELKEMKRLYKQKTTLLKDEEVKLGRMEVELDNLLQYLREEYSLSFEGAKEKYQLETDPEEARKRVKLIKLAIEELGTVNLGSIDEFERVNERYKFLSEQKEDLTEAKNTLFQVIEEMDEEMTKRFNDTFVQIRSHFDQVFRSLFGGGRAELRLTDPNDLLHSGVEIIAQPPGKKLQNLNLLSGGERALTAIALLFSILKVRPVPFCVLDEVEAALDEANVFRFAQYLKKYSSDTQFIVITHRKGTMEEADVLYGVTMQESGVSKVISVKLEETKEFVQ
modifications: MTSL spin label on the engineered cysteine 193
notes: Smc, Bacillus subtilis (Bsu), cysteine-lite Smc^3S background with D193C, without E1118Q; also called wild-type Smc (without E1118Q) with D193C; wt Smc; source: E. coli BL21-Gold (DE3), purified (HiTrap Blue, Heparin, gel filtration)
B1: binds.
